Experimental data as given in patent publication US20150004190A1.
“And” between values parts separate entries of the source, which are not always exact repeats. Identical values can stand only once. Like-named read-outs stand apart in the source and are kept apart here.

Tests used:
[1] = molecular target: P1-PE (HIV-1 clade B HXB2) (UniProt P04578); experiment: ELISA, P1-PE in viral liposomes V2 (P1:lipids 1 for 20), nonlinear regression
[2] = molecular target: P1-PE (HIV-1 clade B HXB2) (UniProt P04578); experiment: ELISA, P1-PE in viral liposomes V1 (P1:lipids 1 for 100), nonlinear regression
[3] = molecular target: P1-PE (HIV-1 clade B HXB2) (UniProt P04578); experiment: ELISA, P1-PE in raft liposomes R2 (P1:lipids 1 for 20), nonlinear regression
[4] = molecular target: P1-PE (HIV-1 clade B HXB2) (UniProt P04578); experiment: ELISA, P1-PE in raft liposomes R1 (P1:lipids 1 for 100), nonlinear regression
[5] = molecular target: P1-PE (HIV-1 clade B HXB2) (UniProt P04578)
[6] = molecular target: P1 (aa 630-685) clade B HXB2 HIV-1 (HIV-1 clade B HXB2) (UniProt P04578); experiment: ELISA on coated peptide (FIG. 1)
[7] = molecular target: P1 (aa 630-685) clade B HXB2 HIV-1 (HIV-1 clade B HXB2) (UniProt P04578); experiment: ELISA, P1 without lipid, nonlinear regression

| Substance | Kd [1] [nM] | Kd [2] [nM] | Kd [3] [nM] | Kd [4] [nM] | Kd [5] | antibody concentration of equivalent binding activity [6] [nM] | Kd [7] [nM] |
| --- | --- | --- | --- | --- | --- | --- | --- |
| 2F5 IgA2 (antibody) | 0.024 | 0.024 | 0.061 | 0.05 | 0.15 nM and 0.21 nM | 0.05 | 0.2 |
| 2F5 IgG1 (antibody) | 0.41 | 0.31 | 0.51 | 0.5 | 1.33 nM and 0.69 nM | 6.25 | 7.38 |
